From patent US11466067B2 (priority 2019, dated 2022)

Assays:
IL-1Ra = type: in vivo, mice; conditions: 9 mg/kg
[1] = test system: IFNγ, IL-1β, IL-2, IL-6, IL-8, TNFα; experiment: Single oral capsule dose in NHP: plasma proinflammatory cytokines; type: in vivo, Macaca fascicularis
Description: The panel of cytokines (IFNγ, IL-1β, IL-2, IL-6, and IL-8) was evaluated using a multiplex kit available from MSD. The assays in this panel were sandwich immunoassays. The MSD plate came precoated with capture antibodies on independent and pre-defined spots, and samples were quantitated against an 8-point standard curve prepared using a mixture of the cytokines (Proinflammatory Panel 1 (human) Calibrator Blend) from MSD. The standards included 0 pg/mL and these concentration ranges: IFNγ (0.37-1500 pg/mL), IL-1β (0.14-589 pg/mL), IL-2 (0.36-1490 pg/mL), IL-6 (0.18-721 pg/mL) and IL-8 (0.14-553 pg/mL).
The MSD plate (pre-coated with capture antibodies) was washed 3 times with PBST before use. Standards were prepared in Diluent 2 (MSD Cat No R51BB) and test samples diluted 2 fold in Diluent 2. Standards and diluted samples were added to the assay plate, and the plate incubated for 2 hours at room temperature with shaking. The plate was washed 3 times with PBST, and a mixture of 1×SULFO TAG detection antibodies added to the plate. The plate was incubated for 2 hours at room temperature with shaking. Following a wash step, 2×MSD Read buffer was added to the wells of the plate, and the plate read using the MSD Sector Imager 600 plate reader. The lower limit of detection of each analyte was defined as 2.5 standard deviation above background.
The purpose of the TNFα immunoassay was to quantify NHP TNFα concentration in plasma. The antibody pair in this immunoassay reacted with both human and NHP TNFα. Samples were quantitated using an 8-point standard curve prepared from a human TNFα calibrator that ranges in concentration from 5.6-4052 pg/mL and includes 0 pg/mL.
The biotinylated anti-NHP TNFα capture antibody was added to a MSD Small Spot Streptavidin plate and incubated for an hour at RT with shaking. Controls were prepared in pooled plasma, standards in Diluent 43 (MSD Cat No R50AG), and test samples were diluted 2 fold in Diluent 43. […] Following a wash step, 2×MSD Read buffer was added to the wells of the plate, and the plate read using the MSD Sector Imager 600 plate reader. […]

DSS-induced colitis = type: in vivo, C57BL6/J mice
colonic genes = experiment: Pan-colonic administration in NHP: colonic gene expression at 8 h; type: in vivo, cynomolgus monkeys
Description: Colonic biopsies at each tissue timepoint were analyzed for local concentration of IL-10 delivery construct, total IL-10, IL-1Ra, soluble cytokines, activation of STAT3 and gene expression following administration of the IL-10 delivery construct. […] In addition, STC1, MTNR1A and VNN2 encode proteins that suppress the […] signaling pathway, a pathway through which key pro-inflammatory cytokines are regulated. […] This is consistent with the ability of IL-10 to suppress these cells' activation or differentiation towards a pro-inflammatory immune phenotype.

[2] = 0.3 mg/mL, 5 h
ulcerative colitis = experiment: Phase 1b multiple ascending dose in patients with active UC; type: in vivo, human
Description: Data was gathered on the safety, tolerability, pharmacokinetics, pharmacodynamics, and initial clinical response following a multiple ascending dose (MAD) of the IL-10 delivery construct in adult patients with active UC over 14 days of treatment. […] A coating with a weight ratio of 50:50 of Eudragit® L30D55: Eudragit® FS30D was applied with a thickness of 14.8 to 16.0 mg/cm^2 and a weight of approximately 76 mg to each capsule. Placebo capsules were generated using similarly coated empty capsules.
A total of four cohorts were dosed with either 1 mg, 3 mg, 10, mg or 30 mg of the IL-10 delivery construct, randomized 3:1 to receive the IL-10 delivery construct or a placebo administered once daily for fourteen days. The goal of the trial was to assess the safety of the IL-10 delivery construct and any change in UC disease activity, through endoscopy, histology, biomarkers, and serum samples. Stool samples and colonic biopsies were obtained at baseline and day 14 of treatment to assess fecal calprotectin as well as histology based upon blinded central read of the Geboes scoring system. Fecal calprotectin is an objective marker of clinical response in UC studies and the Geboes scoring system is a measure of histological response. The Geboes scoring system of this example used a 0-22 point histologic scoring system in which higher scores represent more severe disease.

B1: IL-10 delivery construct: recombinant homodimeric fusion protein: N-terminal methionine, cholix386 domain, polyGlySer spacer, recombinant human IL-10 (protein)
chain: MVEEALNIFDECRSPCSLTPEPGKPIQSKLSIPSDVVLDEGVLYYSMTINDEQNDIKDEDKGESIITIGEFATVRATRHYVNQDAPFGVIHLDITTENGTKTYSYNRKEGEFAINWLVPIGEDSPASIKISVDELDQQRNIIEVPKLYSIDLDNQTLEQWKTQGNVSFSVTRPEHNIAISWPSVSYKAAQKEGSRHKRWAHWHTGLALCWLVPMDAIYNYITQQNCTLGDNWFGGSYETVAGTPKVITVKQGIEQKPVEQRIHFSKGNAMSALAAHRVCGVPLETLARSRKPRDLTDDLSCAYQAQNIVSLFVATRILFSHLDSVFTLNLDEQEPEVAERLSDLRRINENNPGMVTQVLTVARQIYNDYVTHHPGLTPEQTSAGAQAGGGGSGGGGSGGGGSPGQGTQSENSCTHFPGNLPNMLRDLRDAFSRVKTFFQMKDQLDNLLLKESLLEDFKGYLGCQALSEMIQFYLEEVMPQAENQDPDIKAHVNSLGENLKTLRLRLRRCHRFLPCENKSKAVEQVKNAFNKLQEKGIYKAMSEFDIFINYIEAYMTMKIRN
modifications: homodimer
- IL-1Ra mRNA in near-distal colonic tissue (IL-1Ra): trend towards augmented mRNA expression of IL-1Ra
- IL-1Ra/IL-1β ratio in colonic tissue (IL-1Ra): increase in the IL-1Ra/IL-1β ratio
- plasma IFNγ, IL-1β, IL-2, IL-8, IL-6 ([1]; 1-82 mg oral capsules): not associated with any consistent trends
- plasma TNFα ([1]; all samples below limit of detection): no induction
- plasma IL-1Ra and IFN-γ after oral enteric-coated capsules ([1]; compared with intravenous administration): increased IL-1Ra without significant induction of IFN-γ
- edema width, mid colon (DSS-induced colitis; 30 mg/kg): significantly improved
- hyperplasia, mid colon (DSS-induced colitis; 30 mg/kg): significantly improved
- mucosal thickness, mid colon (DSS-induced colitis; 30 mg/kg): significantly improved
- colon length vs vehicle (DSS-induced colitis; 10 and 30 mg/kg, p<0.05): Significant improvement
- DSS-induced body weight loss (DSS-induced colitis; construct 30 mg/kg, CsA 75 mg/kg, oral q.d.): significantly reduced DSS-induced weight loss
- MMP1, MMP3 and MMP19 expression (colonic genes): upregulated
- TIMP1 expression (colonic genes): increased
- anti-inflammatory genes (CD163, miR24-2, NOX1, STC1, MTNR1A, VNN2) (colonic genes): upregulated
- pro-inflammatory genes (MHCII, PLA2G2D, CCL20, CCL13) (colonic genes): decreased
- CYP1A1 expression (colonic genes; 12-hour fast prior to treatment): downregulated
- solution stability in PBS at 37 °C [2]: significant degradation
- solution stability in PBS at RT [2]: stable
- FCP activity at higher doses (ulcerative colitis; 10 mg and 30 mg): diminution of activity
- Geboes score of one UC patient, pre-dose to post-treatment (ulcerative colitis; 10 mg, 14 days, 22 point scale): improved from a score of 15 to a score of three
- tolerability in patients with UC (ulcerative colitis; 1-30 mg once daily, 14 days): well tolerated
- CRP levels vs placebo (ulcerative colitis; 1 and 3 mgs, baseline CRP greater than 5 mg/L): greater reductions in CRP levels
- patients with reduced Geboes score (ulcerative colitis; 14 days, active patients): 60%
- TEAEs in the 12 active patients (ulcerative colitis; human, in vivo): 20
